In patent US20180030100A1:
One block for each molecule: values may come before it.

How the values were obtained:
[1] = molecular target: Plexin A4 receptor expressed on transfected COS-7 cells; assay: AP-conjugated ligand on COS-7 cells expressing Plexin A4, cell-bound AP activity with p-nitrophenyl phosphate, Scatchard plot (FIG. 4C)
[2] = molecular target: Plexin A4 receptor expressed on transfected COS-7 cells; assay: cell-binding assay: AP-conjugated ligand on COS-7 cells expressing Plexin A4, p-nitrophenyl phosphate, absorbance at 405 nm [cont. 1). B]
[3] = molecular target: Plexin A4 receptor expressed on transfected COS-7 cells; assay: AP-conjugated ligand binding curves on COS-7 cells expressing Plexin A4, estimated affinity (FIG. 4E)
[4] = molecular target: Nrp1 expressed on transfected COS cells; assay: AP-conjugated ligand on COS cells expressing Nrp1, cell-bound AP activity with p-nitrophenyl phosphate, binding curve (FIG. 4D)
[5] = molecular target: PlexinA4 of human umbilical vein endothelial cells (human) (UniProt Q9HCM2); assay: cell-based or functional assay
UniProt Q9HCM2, sequence (Q9HCM2 24-1894): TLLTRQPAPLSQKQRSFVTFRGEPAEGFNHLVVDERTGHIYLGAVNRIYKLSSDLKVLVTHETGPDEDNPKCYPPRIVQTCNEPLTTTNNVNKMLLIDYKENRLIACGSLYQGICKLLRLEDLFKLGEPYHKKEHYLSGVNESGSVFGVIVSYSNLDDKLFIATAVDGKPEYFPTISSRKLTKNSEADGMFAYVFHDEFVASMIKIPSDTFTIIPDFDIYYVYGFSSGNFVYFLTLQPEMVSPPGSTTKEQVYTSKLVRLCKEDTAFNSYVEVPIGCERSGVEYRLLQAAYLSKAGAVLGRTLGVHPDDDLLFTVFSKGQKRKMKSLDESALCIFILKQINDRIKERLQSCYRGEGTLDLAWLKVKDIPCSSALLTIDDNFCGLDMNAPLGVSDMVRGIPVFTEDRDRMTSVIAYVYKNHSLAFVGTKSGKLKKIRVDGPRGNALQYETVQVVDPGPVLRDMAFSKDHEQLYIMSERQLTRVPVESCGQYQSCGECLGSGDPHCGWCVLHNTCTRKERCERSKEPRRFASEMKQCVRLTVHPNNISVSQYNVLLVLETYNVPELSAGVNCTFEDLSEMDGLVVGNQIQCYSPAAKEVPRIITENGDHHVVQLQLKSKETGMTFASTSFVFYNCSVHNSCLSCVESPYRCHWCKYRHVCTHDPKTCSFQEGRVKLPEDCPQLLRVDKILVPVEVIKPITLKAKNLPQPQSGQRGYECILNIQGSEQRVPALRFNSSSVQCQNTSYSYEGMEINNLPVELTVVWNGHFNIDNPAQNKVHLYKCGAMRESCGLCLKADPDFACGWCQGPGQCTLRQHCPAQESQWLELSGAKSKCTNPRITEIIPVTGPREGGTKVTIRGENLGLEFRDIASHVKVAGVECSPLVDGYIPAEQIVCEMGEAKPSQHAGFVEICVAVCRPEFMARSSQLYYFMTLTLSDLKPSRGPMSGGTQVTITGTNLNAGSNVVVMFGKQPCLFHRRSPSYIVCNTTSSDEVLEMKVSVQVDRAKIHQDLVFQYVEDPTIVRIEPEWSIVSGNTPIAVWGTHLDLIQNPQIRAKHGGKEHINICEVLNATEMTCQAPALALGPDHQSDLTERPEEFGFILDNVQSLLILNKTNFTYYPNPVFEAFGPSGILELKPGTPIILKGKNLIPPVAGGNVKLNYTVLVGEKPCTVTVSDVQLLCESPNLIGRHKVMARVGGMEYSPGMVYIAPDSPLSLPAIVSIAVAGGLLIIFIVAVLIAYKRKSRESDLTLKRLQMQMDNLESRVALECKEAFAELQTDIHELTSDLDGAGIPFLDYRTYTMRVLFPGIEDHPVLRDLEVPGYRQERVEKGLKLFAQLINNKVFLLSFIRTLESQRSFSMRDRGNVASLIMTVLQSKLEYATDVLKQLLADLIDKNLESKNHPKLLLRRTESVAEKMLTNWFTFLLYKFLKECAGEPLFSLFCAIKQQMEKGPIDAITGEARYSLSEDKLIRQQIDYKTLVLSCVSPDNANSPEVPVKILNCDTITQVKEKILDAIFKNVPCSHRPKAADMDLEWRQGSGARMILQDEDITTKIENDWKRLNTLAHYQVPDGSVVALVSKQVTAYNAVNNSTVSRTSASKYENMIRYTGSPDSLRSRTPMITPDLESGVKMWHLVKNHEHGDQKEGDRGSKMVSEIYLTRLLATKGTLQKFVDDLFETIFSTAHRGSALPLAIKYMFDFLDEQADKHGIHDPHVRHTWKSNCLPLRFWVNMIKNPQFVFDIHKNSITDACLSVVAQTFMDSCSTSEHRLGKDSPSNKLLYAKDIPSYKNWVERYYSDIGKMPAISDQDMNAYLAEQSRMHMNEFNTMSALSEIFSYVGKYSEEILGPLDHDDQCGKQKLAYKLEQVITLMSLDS

Kd [1]: 700 pM
EC50 (read off the curve) [2]: 500 pM
Kd [3]: 700 pM
Molecule: alkaline phosphatase (AP)-conjugated mutant Sema3A A106K ΔIg-b (from UniProt P05187 23-511) (ligand)

Kd [3]: 200000 pM
Molecule: alkaline phosphatase (AP)-conjugated mutant Sema3A ΔIg-b (from UniProt P05187 23-511) (ligand)

Kd [4]: 1100 pM
Kd [3]: 7000 pM
B1: alkaline phosphatase (AP)-conjugated Sema3A WT (ligand, not shown: large carriers)
chain: NYANGKNNVPRLKLSYKEMLESNNVITFNGLANSSSYHTFLLDEERSRLYVGAKDHIFSFNLVNIKDFQKIVWPVSYTRRDECKWAGKDILKECANFIKVLEAYNQTHLYACGTGAFHPICTYIEVGHHPEDNIFKLQDSHFENGRGKSPYDPKLLTASLLIDGELYSGTAADFMGRDFAIFRTLGHHHPIRTEQHDSRWLNDPRFISAHLIPESDNPEDDKVYFFFRENAIDGEHSGKATHARIGQICKNDFGGHRSLVNKWTTFLKARLICSVPGPNGIDTHFDELQDVFLMNSKDPKNPIVYGVFTTSSNIFKGSAVCMYSMSDVRRVFLGPYAHRDGPNYQWVPYQGRVPYPRPGTCPSKTFGGFDSTKDLPDDVITFARSHPAMYNPVFPINNRPIMIKTDVNYQFTQIVVDRVDAEDGQYDVMFIGTDVGTVLKVVSVPKETWHDLEEVLLEEMTVFREPTTISAMELSTKQQQLYIGSTAGVAQLPLHRCDIYGKACAECCLARDPYCAWDGSSCSRYFPTAKRRTRRQDIRNGDPLTHCSDLQHHDNHHGPSLEERIIYGVENSSTFLECSPKSQRALVYWQFQRRNEDRKEEIRMGDHIIRTEQGLLLRSLQKKDSGNYLCHAVEHGFMQTLLKVTLEVIDTEHLEELLHKDDDGDGSKIKEMSSSMTPSQKVWYRDFMQLINHPNLNTMDEFCEQVWKRDRKQRRQRPGHSQGSSNKWKHMQESKKGRNRRTHEFERAPRSV

Relative migration of ECs towards type I collagen at 3 h:45 m, 0.2 nM (xCELLigence) [5]: 60 % of control
Relative migration of ECs towards type I collagen at 3 h:45 m, 0.9 nM (xCELLigence) [5]: 64 % of control
Relative migration of ECs towards type I collagen at 3 h:45 m, 3.5 nM (xCELLigence) [5]: 55 % of control
activation of ERK 1/2 phosphorylation in ECs (Western blot, 15 minutes) [5]: 3.9 fold
B2: mouse Fc-tagged Sema3A A106K ΔIg-b (Fc fusion)
chain: NYANGKNNVPRLKLSYKEMLESNNVITFNGLANSSSYHTFLLDEERSRLYVGAKDHIFSFNLVNIKDFQKIVWPVSYTRRDECKWKGKDILKECANFIKVLEAYNQTHLYACGTGAFHPICTYIEVGHHPEDNIFKLQDSHFENGRGKSPYDPKLLTASLLIDGELYSGTAADFMGRDFAIFRTLGHHHPIRTEQHDSRWLNDPRFISAHLIPESDNPEDDKVYFFFRENAIDGEHSGKATHARIGQICKNDFGGHRSLVNKWTTFLKARLICSVPGPNGIDTHFDELQDVFLMNSKDPKNPIVYGVFTTSSNIFKGSAVCMYSMSDVRRVFLGPYAHRDGPNYQWVPYQGRVPYPRPGTCPSKTFGGFDSTKDLPDDVITFARSHPAMYNPVFPINNRPIMIKTDVNYQFTQIVVDRVDAEDGQYDVMFIGTDVGTVLKVVSVPKETWHDLEEVLLEEMTVFREPTTISAMELSTKQQQLYIGSTAGVAQLPLHRCDIYGKACAECCLARDPYCAWDGSSCSRYFPTGCKPCICTVPEVSSVFIFPPKPKDVLTITLTPKVTCVVVDISKDDPEVQFSWFVDDVEVHTAQTQPREEQFNSTFRSVSELPIMHQDWLNGKEFKCRVNSAAFPAPIEKTISKTKGRPKAPQVYTIPPPKEQMAKDKVSLTCMITDFFPEDITVEWQWNGQPAENYKNTQPIMDTDGSYFVYSKLNVQKSNWEAGNTFTCSVLHEGLHNHHTEKSLSHSPGK
